What was measured:
[1] = target: mIFNAR2-ECD C94S (extracellular domain of mouse IFNAR2, His-tagged) (mouse) (UniProt O35664); test: SPR, ProteOn XPR36, His-tagged receptor on HTG chip, Langmuir model, mean of 10 experiments
[2] = target: mIFNAR2-ECD C94S (extracellular domain of mouse IFNAR2, His-tagged) (mouse) (UniProt O35664); test: SPR, ProteOn XPR36, His-tagged receptor on HTG chip
[3] = target: T1, mIFNAR1-ECD (extracellular domain of mouse IFNAR1, His-tagged) (mouse, UniProt P33896 27-429); test: as above
T1 construct: extracellular domain; The tag is placed at the C-terminus here only for lack of information; not shown: His-tag
T1 sequence (looked up): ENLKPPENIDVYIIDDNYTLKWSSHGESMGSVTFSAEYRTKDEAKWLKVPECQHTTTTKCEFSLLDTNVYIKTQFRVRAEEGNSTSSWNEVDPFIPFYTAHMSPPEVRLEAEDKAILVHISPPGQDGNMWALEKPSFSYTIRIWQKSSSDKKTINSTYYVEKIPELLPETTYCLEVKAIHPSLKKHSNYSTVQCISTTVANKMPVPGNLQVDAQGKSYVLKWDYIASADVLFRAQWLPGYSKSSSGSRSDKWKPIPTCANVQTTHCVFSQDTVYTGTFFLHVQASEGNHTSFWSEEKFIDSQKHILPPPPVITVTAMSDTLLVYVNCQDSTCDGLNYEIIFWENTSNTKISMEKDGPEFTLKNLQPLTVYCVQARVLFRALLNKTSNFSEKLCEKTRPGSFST
Experimental: (§1) For Surface Plasmon Resonance (SPR), mIFNAR1-ECD and rmIFN were expressed and purified from mammalian cell and insect cell culture, respectively, as previously described (Stifter et al. (2014) Protein Expr Purif 94:7-14); mIFNAR2-ECDC94S and rmIFN 1 were expressed and purified from mammalian cell culture also as previously described (de Weerd et al. (2013) supra). huIFNε is produced in a similar manner All SPR experiments were carried out on a ProteOn XPR36 (Bio-Rad Labs) using a HTG chip for His-tagged proteins and TBS as the running buffer. mIFNAR1-ECD and mIFNAR2-ECDC94S were immobilized to the nickel activated chip via the His-tags after dilution to […] in TBS. All IFNs (rmIFN 1, rmIFN and rmIFN) were diluted in TBS to various concentrations ranging from 40 nM to […]. All data were referenced according to the manufacturer's instructions (Bio-Rad) and analyzed using the Langmuir binding model. Data were considered for inclusion in the analysis only if the Chit value (the measure of error between measured and fitted values) was less than 10% of the Rₘₐₓ as per the manufacturer's instructions (Bio-Rad). Kₐ (1/Ms), Kd (1/s) and KD (nM) were calculated by the ProteOn Manager software and are represented as mean (+SD) from at least triplicate experiments. Significance was determined using one-way ANOVA with Dunnett's multiple comparisons testing. […]

[4] = target: T1, mIFNAR1-ECD (extracellular domain of …); test: SPR, ProteOn XPR36, His-tagged receptor on HTG chip, Langmuir model, n=9 experiments
Experimental: as §1

huIFNAR2 [5] = target: T2, huIFNAR2 (human, UniProt P48551 27-243, limits assumed); test: microscale thermophoresis (MST), E. coli expressed huIFNε
T2 sequence (looked up): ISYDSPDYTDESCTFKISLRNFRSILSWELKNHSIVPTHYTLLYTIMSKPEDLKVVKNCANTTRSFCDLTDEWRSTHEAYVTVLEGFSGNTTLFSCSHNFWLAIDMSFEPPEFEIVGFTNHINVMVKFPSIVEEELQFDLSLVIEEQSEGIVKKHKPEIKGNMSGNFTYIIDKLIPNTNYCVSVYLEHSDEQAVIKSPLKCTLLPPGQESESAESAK

huIFNAR2 [6] = target: T2, huIFNAR2; test: microscale thermophoresis (MST)
[7] = target: T1, mIFNAR1-ECD (extracellular domain of …); test: SPR, ProteOn XPR36, His-tagged receptor on HTG chip, Langmuir model, n=10 experiments
Experimental: as §1

mIFNAR2-ECD C94S (extracellular domain of mouse IFNAR2, His-tagged) (mouse), sequence (O35664 22-242, stated change not applied): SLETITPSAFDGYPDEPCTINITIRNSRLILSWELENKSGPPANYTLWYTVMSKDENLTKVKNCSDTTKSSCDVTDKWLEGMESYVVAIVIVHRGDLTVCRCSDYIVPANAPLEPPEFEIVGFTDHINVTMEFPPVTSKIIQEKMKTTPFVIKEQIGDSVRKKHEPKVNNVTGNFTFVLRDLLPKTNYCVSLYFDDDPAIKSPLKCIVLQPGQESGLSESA

For “recombinant murine interferon alpha 1 (rmIFNα1) (from UniProt P01572 24-189) (ligand)”, which Kd [1] is on record?
The Kd was 1.68 nM.

B1: recombinant murine interferon epsilon (rmIFNε) (ligand)
chain: LEPKRIPFQLWMNRESLQLLKPLPSSSVQQCLAHRKNFLLPQQPVSPHQYQEGQVLAVVHEILQQIFTLLQTHGTMGIWEENHIEKVLAALHRQLEYVESLGGLNAAQKSGGSSAQNLRLQIKAYFRRIHDYLENQRYSSCAWIIVQTEIHRCMFFVFRFTTWLSRQDPDP
notes: also called muIFNε; MuIFNε
B1 was tested. Which fold lower affinity than rmIFNα1 [2] did it give?
Its fold lower affinity than rmIFNα1 is over 1000 fold.

What about the “fold lower affinity than the rmIFNβ-IFNAR1-ECD interaction” value [3] of the same molecule?
Its value is about 200 fold.

What about the Kd [4] of the same molecule?
The Kd was 556 nM.

B2: human interferon epsilon (huIFNε), E. coli expressed and refolded (ligand)
chain: LDLKLIIFQQRQVNQESLKLLNKLQTLSIQQCLPHRKNFLLPQKSLSPQQYQKGHTLAILHEMLQQIFSLFRANISLDGWEENHTEKFLIQLHQQLEYLEALMGLEAEKLSGTLGSDNLRLQVKMYFRRIHDYLENQDYSTCAWAIVQVEISRCLFFVFSLTEKLSKQGRPLNDMKQELTTEFRSPRSA
notes: also called hIFN; rhIFN
For B2, which Kd (huIFNAR2 [5]) is on record?
Its Kd is 8.19 µM.

B3: huIFNβ (ligand, human, UniProt P01574 22-187, looked up)
chain: MSYNLLGFLQRSSNFQCQKLLWQLNGRLEYCLKDRMNFDIPEEIKQLQQFQKEDAALTIYEMLQNIFAIFRQDSSSTGWNETIVENLLANVYHQINHLKTVLEEKLEKEDFTRGKLMSSLHLKRYYGRILHYLKAKEYSHCAWTIVRVEILRNFYFINRLTGYLRN
notes: Comparator in the MST measurement; The source of the protein is not clearly stated; also called rhuIFNβ
How did the Kd (huIFNAR2 [6]) turn out when B3 was run?
Its Kd is 0.25 nM.

B4: recombinant murine interferon beta (rmIFNβ) (ligand, UniProt P01575 22-182, looked up)
chain: INYKQLQLQERTNIRKCQELLEQLNGKINLTYRADFKIPMEMTEKMQKSYTAFAIQEMLQNVFLVFRNNFSSTGWNETIVVRLLDELHQQTVFLKTVLEEKQEERLTWEMSSTALHLKSYYWRVQRYLKLMKYNSYAWMVVRAEIFRNFLIIRRLTRNFQN
notes: Printed as 'rmIFN' with the Greek letter lost
B4 was tested. Which Kd [7] did it give?
Its Kd is 2.45 nM.
